Measured values reported in patent US20040126856A1, “Factor ixa: factor Vllla interaction and methods therefor” (priority 2004, published 2004).
No end group written: not given here.

Columns and labels:
[1] = target: IXaPCEGF1:A2 subunit interaction; test: A2 558-565 peptide inhibition of IXaPCEGF1:A2 subunit interaction (factor X activation, tenase system); type: biochemical, human; conditions: 100 nM IXaPCEGF1, 30 nM A2 subunit, 250 nM factor X, 25 μM PL (FIG. 5)
Method: (§1) Determination of the Apparent Kdpeptide of Binding of Each Factor IXa to the A2 558-565 Peptide.
(§2) The apparent Kd (termed Kdpeptide) for binding of each factor IXa to the A2 558-565 peptide was determined by its ability to inhibit the respective IXa:A2 subunit interaction as measured by reduction in the rate of factor X activation in the tenase system. The reaction mixtures for both IXaWT and IXaPCEGF1 contained 100 nM factor IXa, 30 nM A2 subunit, 250 nM factor X, and 25 μM PL in TBS/BSA, pH 7.5 with 5 mM CaCl2. The reaction mixture for IXaR333Q contained 300 nM factor IXa instead of 100 nM used for IXaWT or IXaPCEGF1; concentrations of other components were the same. The amount of factor Xa generated was determined by hydrolysis of S-2222. The IC50 values were obtained using Eq. 2. Here, y is the rate of factor Xa formation in the presence of a given concentration of the A2 558-565 peptide represented by x, and a is the maximum rate of factor Xa formation in the absence of the A2 peptide. Eq. 3 was then used to obtain the apparent Kdpeptide values. In this context, A is the concentration of IXaWT, IXaPCEGF1, or IXaR333Q, and EC50 is the apparent KdA2 for the respective IXa:A2 subunit interaction.

factor Xa generation = conditions: Fay et al., 1994; Fay and Koshibu, 1998; cited from earlier work
[2] = target: T1, IXaR333Q:A2 subunit interaction (Homo sapiens, UniProt P00740, R379Q); test: A2 558-565 peptide inhibition of IXaR333Q:A2 subunit interaction (factor X activation, tenase system); type: biochemical
T1 construct: made in house
Method: as §1, §2

factor VIIIa = target: T2, factor VIIIa (Homo sapiens, UniProt P00451); test: EC50 for factor IXa-factor VIIIa interaction in the tenase complex; type: biochemical; conditions: 0.07 nM factor VIIIa, 480 nM factor X, 10 μM PL, 5 mM CaCl2; read-out: EC50 (functional Kd) for factor IXa-factor VIIIa interaction
T2 construct: to yield factor VIIIa, a heterotrimer composed of A1, A2 and A3-C1-C2 subunits; cleaved by thrombin at R372-S373, R740-S741, and R1689-S1690 to yield factor VIIIa
T2 sequence (P00451 20-391): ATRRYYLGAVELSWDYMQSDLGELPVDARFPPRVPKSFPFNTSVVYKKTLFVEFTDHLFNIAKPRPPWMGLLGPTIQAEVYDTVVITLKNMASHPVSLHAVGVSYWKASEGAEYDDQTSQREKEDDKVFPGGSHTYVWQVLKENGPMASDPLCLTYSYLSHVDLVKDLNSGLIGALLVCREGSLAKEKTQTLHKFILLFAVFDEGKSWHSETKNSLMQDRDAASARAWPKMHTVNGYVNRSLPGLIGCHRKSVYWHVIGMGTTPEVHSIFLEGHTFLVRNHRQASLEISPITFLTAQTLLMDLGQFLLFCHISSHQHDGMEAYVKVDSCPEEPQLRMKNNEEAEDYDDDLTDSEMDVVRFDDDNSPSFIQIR
T2 sequence (P00451 392-759): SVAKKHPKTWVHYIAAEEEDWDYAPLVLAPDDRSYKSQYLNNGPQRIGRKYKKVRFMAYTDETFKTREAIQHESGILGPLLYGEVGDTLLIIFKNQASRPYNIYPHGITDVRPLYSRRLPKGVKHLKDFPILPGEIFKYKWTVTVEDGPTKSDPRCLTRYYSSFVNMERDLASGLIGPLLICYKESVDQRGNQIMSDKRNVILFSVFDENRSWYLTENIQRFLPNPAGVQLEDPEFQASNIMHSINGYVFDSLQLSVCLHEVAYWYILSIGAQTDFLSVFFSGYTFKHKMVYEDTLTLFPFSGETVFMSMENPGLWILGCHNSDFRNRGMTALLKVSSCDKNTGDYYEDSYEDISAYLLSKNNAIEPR
T2 sequence (P00451 1709-2351): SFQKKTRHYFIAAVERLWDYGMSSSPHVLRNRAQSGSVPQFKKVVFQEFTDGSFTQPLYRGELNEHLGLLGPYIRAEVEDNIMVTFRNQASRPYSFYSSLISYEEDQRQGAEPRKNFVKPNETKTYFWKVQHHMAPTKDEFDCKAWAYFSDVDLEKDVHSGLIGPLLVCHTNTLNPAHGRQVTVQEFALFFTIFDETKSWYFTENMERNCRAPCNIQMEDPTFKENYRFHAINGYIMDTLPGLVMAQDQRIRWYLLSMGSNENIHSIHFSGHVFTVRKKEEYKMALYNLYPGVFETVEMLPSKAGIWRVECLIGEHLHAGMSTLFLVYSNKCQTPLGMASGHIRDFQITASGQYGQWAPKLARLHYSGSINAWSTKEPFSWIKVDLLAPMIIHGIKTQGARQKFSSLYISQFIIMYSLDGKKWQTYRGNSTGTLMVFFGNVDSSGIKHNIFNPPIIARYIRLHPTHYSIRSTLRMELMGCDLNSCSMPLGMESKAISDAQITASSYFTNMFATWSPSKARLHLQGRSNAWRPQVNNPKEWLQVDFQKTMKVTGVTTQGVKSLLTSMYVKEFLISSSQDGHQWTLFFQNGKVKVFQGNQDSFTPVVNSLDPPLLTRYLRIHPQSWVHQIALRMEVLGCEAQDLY
Method: Determination of the EC50 of for Factor IXa-Factor VIIIa Interaction in the Tenase Complex
These experiments are performed with normal factor IXa in the presence of phospholipid (PL) vesicles. 50-μl reaction mixtures in TBS-BSA (50 mM Tris-HCl, pH 7.4, 1 mg/ml BSA) with 5 mM CaCl2 and 10 μM PL are prepared containing a fixed concentration of factor VIIIa (0.07 nM) and various concentrations of factor IXa (0-20 nM) at a constant concentration of factor X (480 nM), which is added last to initiate the reaction. The reaction is carried out at 37° C. for 30-120 seconds at which time 1 μl of 0.5 M EDTA is added to stop further generation of factor Xa. A 40 μl aliquot is added to a 0.1-mL quartz cuvette containing a synthetic substrate S-2222 in 75 μl of TBS-BSA, pH 7.4. The final concentration of S-2222 is 100 μM. The p-nitroaniline release is measured continuously (ΔA405/min) for up to 20 minutes (Mathur et al., 1997). Factor Xa generated is calculated from a standard curve constructed using factor Xa prepared by insolubilized Russell's viper venom. In control experiments, at each factor X concentration used, the rate of factor Xa generation is also measured at various concentrations of normal factor IXa in the absence of factor VIIIa; these control values are ˜5% of the experimental values in the presence of factor VIIIa and are subtracted before analysis of the data. […]

[3] = target: factor IXaPCEGF1 (factor IXa replacement mutant in which the EGF1 domain is replaced by that of protein C) (human) (UniProt P04070); test: apparent Kdpeptide against that of WT
[4] = target: factor IXaPCEGF1 (factor IXa replacement mutant in which the EGF1 domain is replaced by that of protein C) (human) (UniProt P04070); test: peptide inhibition of IXaPCEGF1:A2 in tenase assay (FIG. 5); IC50 converted by Cheng-Prusoff; apparent Kdpeptide
[5] = target: T3, factor IXaR333Q (factor IXa point mutant in which Arg333 is replaced by Gln) (human, UniProt P00740 47-190; P00740 227-461, gamma-carboxyglutamic acid residues in the Gla domain (normal Gla content)); test: peptide inhibition of IXa:A2 interaction; factor Xa generation (FIG. 5)
T3 construct: R333 is c165 in chymotrypsin numbering; also called IXR333Q
Method: (§3) Factor Xa generation was determined by S-2222 hydrolysis, and the curves represent best fit to the IC₅₀ four-parameter logistic equation (Eq. 2).
(§4) The amount of factor Xa generated was determined by hydrolysis of S-2222. The IC₅₀ values were obtained using Eq. 2. […] Eq. 3 was then used to obtain the apparent Kdpeptide values.

[6] = target: T3, factor IXaR333Q (factor IXa point …); test: peptide inhibition of IXaR333Q:A2 interaction; 300 nM IXa, 30 nM A2, 250 nM factor X; factor Xa generation (FIG. 5)
Method: as §3, §4

[7] = target: factor IXaPCEGF1 (factor IXa replacement mutant in which the EGF1 domain is replaced by that of protein C) (human) (UniProt P04070); test: calculated from apparent Kdpeptide (RT ln Kd, 298 K)
[8] = target: T3, factor IXaR333Q (factor IXa point …); test: apparent Kdpeptide against that of WT
Source text: Eq. 3 was then used to obtain the apparent Kdpeptide values.
(§5) The Cheng and Prusoff relationship (Cheng and Prusoff, 1973; Craig, 1993) was then used to obtain apparent Kdpeptide values for each factor IXa protein.

[9] = target: T4, factor IXaWT (wild-type recombinant factor IX activated by factor XIa) (human, UniProt P00740 47-190; P00740 227-461, gamma-carboxyglutamic acid residues in the Gla domain (residues 1-40, 12 Gla; normal Gla content)); test: peptide inhibition of IXaWT:A2 in tenase assay (FIG. 5); IC50 converted by Cheng-Prusoff; apparent Kdpeptide
T4 construct: Two-chain, disulfide-linked protease; also called IXWT
Method: as §4, §5

[10] = target: factor IXaPCEGF1 (factor IXa replacement mutant in which the EGF1 domain is replaced by that of protein C) (human) (UniProt P04070); test: peptide inhibition of IXaPCEGF1:A2 interaction; 100 nM IXa, 30 nM A2, 250 nM factor X; factor Xa generation (FIG. 5)
[11] = target: T3, factor IXaR333Q (factor IXa point …); test: peptide inhibition of IXaR333Q:A2 in tenase assay (FIG. 5); IC50 converted by Cheng-Prusoff; apparent Kdpeptide
Method: as §4

[12] = target: factor IXaPCEGF1 (factor IXa replacement mutant in which the EGF1 domain is replaced by that of protein C) (human) (UniProt P04070); test: calculated from apparent Kdpeptide, against WT
[13] = target: T4, factor IXaWT (wild-type recombinant …); test: peptide inhibition of IXaWT:A2 interaction; 100 nM IXa, 30 nM A2, 250 nM factor X; factor Xa generation (FIG. 5)
Method: as §3, §4

T3 sequence (P00740 47-190, change not shown, form in doubt, chain 1 of 2): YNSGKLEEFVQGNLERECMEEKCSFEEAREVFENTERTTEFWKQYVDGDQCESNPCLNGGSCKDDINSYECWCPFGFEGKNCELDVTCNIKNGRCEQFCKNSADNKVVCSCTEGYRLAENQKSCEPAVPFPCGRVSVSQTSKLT
T3 sequence (P00740 other isoform, or with tags, fused parts or gaps mutant, form in doubt, chain 2 of 2): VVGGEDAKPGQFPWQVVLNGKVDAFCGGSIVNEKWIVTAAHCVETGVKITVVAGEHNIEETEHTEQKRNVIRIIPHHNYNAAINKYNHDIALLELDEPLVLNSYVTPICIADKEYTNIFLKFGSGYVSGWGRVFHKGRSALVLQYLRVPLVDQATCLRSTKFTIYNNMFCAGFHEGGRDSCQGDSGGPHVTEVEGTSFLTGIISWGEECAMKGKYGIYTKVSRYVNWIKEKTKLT
T4 sequence (P00740 47-190, form in doubt, chain 1 of 2): as the sequence (P00740 47-190, change not shown, form in doubt, chain 1 of 2) above
T4 sequence (P00740 227-461, form in doubt, chain 2 of 2): as the sequence (P00740 other isoform, or with tags, fused parts or gaps mutant, form in doubt, chain 2 of 2) above, with Q153R counted along it
T1 sequence (P00740 47-191): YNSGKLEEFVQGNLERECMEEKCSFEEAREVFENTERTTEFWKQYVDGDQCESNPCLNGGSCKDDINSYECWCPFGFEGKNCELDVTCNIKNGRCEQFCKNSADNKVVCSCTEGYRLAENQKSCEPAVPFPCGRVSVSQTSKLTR
T1 sequence (P00740 227-461 R379Q): as the sequence (P00740 other isoform, or with tags, fused parts or gaps mutant, form in doubt, chain 2 of 2) above

SVDQRGNQ [A2 558-565 peptide]
IC50 [1]: ~8 µM | Effect on factor Xa generation in purified systems (factor Xa generation): inhibit factor Xa generation | Fold higher IC50 for IXaR333Q:A2 than for IXaWT or IXaPCEGF1 [2]: ~9 fold

normal factor IXa: normal factor IXa used in the tenase complex of Example 2
EC50 (factor VIIIa): ~0.0004 µM

B1: synthetic peptide corresponding to the A2 subunit residues 558-565 (Ser-Val-Asp-Gln-Arg-Gly-Asn-Gln) (peptide)
peptide: SVDQRGNQ
fold-change in apparent Kd (mutant/WT) [3]: 1 fold | Kd [4]: 4 µM | fold higher IC50 than for IXaWT or IXaPCEGF1 [5]: ~9 fold | IC50 [6]: ~70 µM | Gibbs free energy (delta G° peptide) [7]: 7.36 kcal/mol | fold-change in apparent Kd (mutant/WT) [8]: 15 fold | Kd [9]: 4 µM | IC50 [10]: 8 µM | Kd [11]: 62 µM | change in delta G° between the mutant and WT [12]: 0 kcal/mol | IC50 [13]: ~8 µM
